Results: publication PMC5663958, “DNA Ligase C and Prim-PolC participate in base excision repair in mycobacteria” (Nature Communications, 2017)

Assays:
[1] = target: T1, DNA ligase C1 (LigC1, msmeg_6302), recombinant, His-tagged construct (M. smegmatis, UniProt A0R5T2 1-348); assay: far-Western, overlay or dot blot; recombinant proteins slot-blotted on a membrane (3 μg of the possible interactors, 50 ng of the probed protein), blocked in TBS, 0.05% Tween 20, 5% milk; incubated with 5 μg ml^−1 Prim-PolC or LigC1; detected with Prim-PolC- or LigC1-specific antibodies; details: both partners purified
T1 construct: ATP-dependent DNA ligase C1 of Mycobacterium smegmatis, locus msmeg_6302; Cloned in pET28; also called 6xHis-LigC; source: E. coli Origami B pLysS, purified (Ni Sepharose, ion exchange, gel filtration)
T1 sequence (looked up): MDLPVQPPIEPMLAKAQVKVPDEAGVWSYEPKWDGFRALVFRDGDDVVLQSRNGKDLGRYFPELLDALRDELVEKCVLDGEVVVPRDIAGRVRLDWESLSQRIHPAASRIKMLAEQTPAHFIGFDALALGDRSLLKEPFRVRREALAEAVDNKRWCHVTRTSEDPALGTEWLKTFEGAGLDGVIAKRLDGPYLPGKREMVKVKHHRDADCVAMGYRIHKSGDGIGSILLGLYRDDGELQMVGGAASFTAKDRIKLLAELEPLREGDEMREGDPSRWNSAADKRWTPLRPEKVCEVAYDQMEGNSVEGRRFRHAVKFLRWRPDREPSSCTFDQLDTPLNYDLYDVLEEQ

[2] = target: T2, tag-free LigC1 (6xHis-LigC subjected to thrombin digestion) (M. smegmatis, UniProt A0R5T2 1-348); assay: pull-down; FPG-6xHis or 6xHis-MPG bound to Ni-NTA resin in 50 mM Tris pH 8.0, 150 mM NaCl, 1 h at 4 °C; tag-free LigC or BSA added for 2 h; equimolar proteins; eluted with imidazole; SDS-PAGE and Coomassie staining; details: both partners purified
T2 construct: ATP-dependent DNA ligase C1 of Mycobacterium smegmatis, locus msmeg_6302; same construct as m2 with the tag cut off by thrombin; The methods say 'LigC', the results 'LigC1'; source: E. coli Origami B pLysS, purified; His-tag removed by a standard thrombin digestion; not shown: 6xHis, N-terminal, cleaved
T2 sequence (looked up): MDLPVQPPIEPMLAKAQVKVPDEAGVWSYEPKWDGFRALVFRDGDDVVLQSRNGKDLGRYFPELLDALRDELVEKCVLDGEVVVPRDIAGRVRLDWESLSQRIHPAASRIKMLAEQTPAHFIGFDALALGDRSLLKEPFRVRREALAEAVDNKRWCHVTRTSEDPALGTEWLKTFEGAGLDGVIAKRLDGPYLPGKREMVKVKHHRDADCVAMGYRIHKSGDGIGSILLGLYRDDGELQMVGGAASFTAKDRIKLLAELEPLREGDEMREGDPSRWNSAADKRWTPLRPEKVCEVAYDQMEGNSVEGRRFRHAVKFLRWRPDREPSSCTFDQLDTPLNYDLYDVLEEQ

B1: FPG (MutM) bifunctional glycosylase, recombinant (enzyme, M. smegmatis, UniProt A0QV21 1-285, looked up)
chain: MPELPEVEVVRRGLAEHVTGKTITGVRVHHPRAVRRHEAGPADLTARLLDVRITGTGRRGKYLWLTLDDSAALVVHLGMSGQMLLGPIRDTRHLRIAAVLDDGTALSFVDQRTFGGWQLTEMVTVDGTDVPEPVAHIARDPLDPLFDRDRVVTVLRGKHSEIKRQLLDQTVVSGIGNIYADEALWRTKINGARIAAALPRRRLAELLDAAAEVMTDALGQGGTSFDSLYVNVNGESGYFDRSLDAYGREGEPCRRCGAIMRREKFMNRSSFYCPRCQPRPRVPRV
notes: Bifunctional DNA glycosylase FPG (MutM) of Mycobacterium smegmatis; Cloned in pET28; also called FPG-6xHis; source: E. coli Origami B pLysS, purified (Ni Sepharose, ion exchange, gel filtration); not shown: 6xHis, C-terminal, kept
binding result [1]: binds
binding result [2]: binds
